The values that follow come from patent US20250236667A1, “ANTIBODIES TO MUTANT CALRETICULIN AND USES THEREOF” (CENTRAL ADELAIDE LOCAL HEALTH NETWORK INC, priority 2021, published 2025).

B1: wild type calreticulin (CALR) (other, human, UniProt P27797 18-417, looked up)
chain: EPAVYFKEQFLDGDGWTSRWIESKHKSDFGKFVLSSGKFYGDEEKDKGLQTSQDARFYALSASFEPFSNKGQTLVVQFTVKHEQNIDCGGGYVKLFPNSLDQTDMHGDSEYNIMFGPDICGPGTKKVHVIFNYKGKNVLINKDIRCKDDEFTHLYTLIVRPDNTYEVKIDNSQVESGSLEDDWDFLPPKKIKDPDASKPEDWDERAKIDDPTDSKPEDWDKPEHIPDPDAKKPEDWDEEMDGEWEPPVIQNPEYKGEWKPRQIDNPDYKGTWIHPEIDNPEYSPDPSIYAYDNFGVLGLDLWQVKSGTIFDNFLITNDEAYAEEFGNETWGVTKAAEKQMKDKQDEEQRLKEEEEDKKRKEEEEAEDKEDDEDKDEDEEDEEDKEEDEEEDVPGQAKDEL
notes: also called CALR^WT; endogenous wild type CALR
B2: 2D2 rat monoclonal anti-mutant calreticulin antibody (antibody, V domains shown)
VH: QVQLQQSGAELTKPGSSVKISCKTSGYTFTTYDISWIKQRPGQALEWIGAIYPGGVTTGYNEKFKGKATLTVDKSSNTAFMQLSSLTPEDTAVYYCARWGHTTGTRFDHWGQGVMVTVSS
VL: DVLLTQTPVSLSVSLGDQASISCRSSQSLEYSDGYTYLEWYVQKPGQSPQLLIYEVSDRFSGVPDRFIGSGSGTDFTLKISRVEPEDLGVYYCFQATHDPPTFGGGTKLELK
notes: also called rat anti-human mutCALR 2D2

For test [1], the system named is healthy cord blood CD34+ cells. In words: cells. The test is classed as cell-based, human. To be noted: Homo sapiens, 288 h, 12 days, read-out: inhibition of megakaryocyte formation. As for the experimental part:
Umbilical cord blood (UCB) was collected with written consent from full-term deliveries at the Women's Health Unit, Lyell McEwin Hospital (Adelaide, South Australia) or the Department of Obstetrics and Gynecology, Medical University of Graz (Austria) with institutional review board approval (IRB approval: 31-322 ex 18/19; HREC/20/WCHN/65). Samples were processed using a Ficoll-Paque (GE Healthcare) density gradient to isolate mononuclear cells (800×g, room temperature, 30 minutes, deceleration off), followed by red cell lysis (ammonium-chloride-potassium lysing buffer) to remove remaining red blood cells. CD34 enrichment was performed by magnetic cell separation using CD34 Microbead kit (Miltenyi Biotech). Alternatively, purified CD34+ cells from cord-blood were purchased from Lonza. CD34+ cells with a purity above 90% were either cryopreserved or directly cultured in serum-free stem cell retention media (StemSpan SFEMII, Stemcell Technologies, Vancouver, BC, Canada) supplemented with human recombinant SCF, TPO, FLT3, IL-6 (all 20 ng/mL), UM729 (1.75 uM) and StemReginin 1 (SR1, 300 nM). All cytokines and SRI were purchased from PeproTech (Rocky Hill, NJ, USA) whereas UM729 was purchased from Stemcell Technologies.
For megakaryocyte differentiation assays, CD34+ cells derived from cord blood or from patient peripheral blood mononuclear fractions were plated in Megacult (MegaCult™-C Collagen and Medium with Lipids) with added IL-3 and IL-6 (10 ng/ml) in the presence or absence of 50 ng/mL TPO. Cells were plated at an initial density of 1800 cells/well and cultured for 12 days at 37° C. and 5% CO2. […] Culture media was replenished every 3 days and cells were assessed for megakaryocyte differentiation on day 12 using anti-human CD41/61 PE-Cy7 (Clone A2A9/6) and CountBright beads (Thermo Fisher) to enumerate cell numbers. […] Cells were seeded at approximately 100 cells per well and were cultured in the presence of 20 μg/mL 4D7 or control IgG antibody and scored for colony and blast forming units at 12-14 days.

Test [2] addresses T1, thrombopoietin receptor (TpoR) (UniProt P40238 26-635, limits assumed).
T1 construct: whole, on cells; It was immunoprecipitated with anti-FLAG beads, so the expressed TpoR evidently carries a FLAG tag; The construct and the position of the tag are not described; also called TPO receptor
T1 sequence (looked up): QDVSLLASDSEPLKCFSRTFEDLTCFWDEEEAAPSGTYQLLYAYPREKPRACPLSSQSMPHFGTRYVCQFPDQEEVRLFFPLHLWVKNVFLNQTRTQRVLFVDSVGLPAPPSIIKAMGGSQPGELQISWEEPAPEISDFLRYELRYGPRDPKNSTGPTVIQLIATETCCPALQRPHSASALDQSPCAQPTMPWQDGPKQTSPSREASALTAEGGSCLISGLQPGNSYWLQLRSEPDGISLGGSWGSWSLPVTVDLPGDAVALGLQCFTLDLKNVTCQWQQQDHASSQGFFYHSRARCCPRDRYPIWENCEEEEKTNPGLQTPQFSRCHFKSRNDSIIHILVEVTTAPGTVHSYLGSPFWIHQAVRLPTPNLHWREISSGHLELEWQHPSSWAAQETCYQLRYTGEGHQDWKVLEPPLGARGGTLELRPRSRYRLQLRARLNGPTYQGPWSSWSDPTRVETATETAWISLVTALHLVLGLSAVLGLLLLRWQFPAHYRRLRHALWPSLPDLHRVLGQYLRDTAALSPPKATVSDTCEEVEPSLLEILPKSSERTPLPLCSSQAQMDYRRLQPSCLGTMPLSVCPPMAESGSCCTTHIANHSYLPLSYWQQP
In words: co-immunoprecipitation with anti-FLAG (MPL/TpoR), reducing Western blot. On the procedure:
B. Similar experiment using TPO-independent TF-1 TpoR CALR^del61 cells at 4 and 8 hours. C. Similar experiment shown using TPO-independent TF-1 TpoR CALR^del52 cells, 8 hours. D. Flow cytometry analysis for cell cycle distribution of TF-1 TpoR CALR^del61 cells exposed to 20 μg/mL IgG or 4D7 for 48 hours. Cells were harvested and fixed and stained with propidium iodide and their DNA contents were analysed. Results from one representative experiment shown. Percentages of cells in Sub Go, G1. S and G2/M cycle indicated. E. Western blot showing specific co-immunoprecipitation of mutant CALR^del61 cells with TpoR anti-FLAG antibody under reducing conditions detected by total and mutant specific CALR antibodies. Arrowheads represent detected CALR protein. F. Western blot showing decreased TpoR phosphorylation in a TpoR immunoprecipitated after 8 hours of 20 μg/mL 4D7 treatment compared to PBS or IgG control in TF-1 TpoR CALR^del61.
(§1) For immunoblotting of total lysates, cells were lysed in NP40 buffer containing 150 mM NaCl, 50 mM Tris pH 7.6, 1% NP-40, supplemented with protease inhibitors (Complete, Roche) and phosphatase inhibitor cocktails, and boiled for 5 minutes after addition of sample buffer (60 mM Tris pH 6.8, 5% glycerol, 1% SDS, 2% β-mercaptoethanol, 0.02% bromophenol blue) before SDS gel electrophoresis followed by Western blotting (Tvorogov et al, 2010). […]
Background: A western blot detects proteins with antibodies after separation by electrophoresis.

In test [3] the test system is 30 amino acid peptide corresponding to the C-terminal mutant CALR neoepitope sequence. In words: ELISA binding to peptide. The arrangement: species or system human. As for the experimental part:
(§2) Rats were immunised with a CALR mutant peptide “MMRTKMRMRRMRRT RRKMRRKMSPARPRTS” coupled to KLH, this peptide sequence is unique to CALR mutant. Serum from the immunised rats was screened by enzyme linked immunoassay, to verify a strong titre to the peptide immunogen, prior to performing the hybridoma fusion. Immunised rat spleen cells were harvested and a spleen single cell suspension was combined with Sp2/O myeloma cell line. The cell mixture was treated with polyethylene glycol plus DMEM prior to been plated in 96 well flat bottom plates. The expanding hybridomas were screened initially by ELISA and the positive clones were further verified by western blot, for reactivity to the expressed CALR mutant protein before subcloning the hybridomas for antibody production.

Test [4] has as its target B1. Description: Western blot of TF-1 cell extracts (hybridoma clone screen). As for the experimental part:
B. Replicate Scatchard analyses of 4D7 using I¹²⁵-labelled and unlabelled 4D7 bound to full-length peptide (n=3). C. […] Cells were cultured in the presence or absence of 10 ng/ml TPO (n=3). D. Paracrine CALR-mutant protein is not sufficient to maintain TPO sensitive cells in culture. TF1 TpoR and TF-1 TpoR CALR^del61 cells were seeded at the same density and cultured in the presence or absence of TPO. Cells were separated by semi-permeable membrane in a horizontal co-culture system. Cell populations on either side of the membrane were counted every 24 hours over 4 days in triplicate and representative images were taken on day 4. Exogenous CALR secreted by TF-1 TpoR CALR^del61 was unable to assist growth of factor dependent TF-1 TopR cells (n=3). E. Histogram overlays showing fluorescence intensity of unstained and PE conjugated IgG2a isotype control in TF-1, TF-1 TpoR and TF-1 TpoR CALR^del61 compared to 4D7 conjugated to PE.
as §1

The subject of test [5] is mutant CALR protein. In words: Western blot detection of mutant CALR by hybridoma clones. It is filed as binding, human. To be noted: cell extracts from TF-1 cells transduced with and without mutant CALR; data not shown. On the procedure:
as §2
For immunoblotting of total lysates, cells were lysed in NP40 buffer containing 150 mM NaCl, 50 mM Tris pH 7.6, 1% NP-40, supplemented with protease inhibitors (Complete, Roche) and phosphatase inhibitor cocktails, and boiled for 5 minutes after addition of sample buffer (60 mM Tris pH 6.8, 5% glycerol, 1% SDS, 2% β-mercaptoethanol, 0.02% bromophenol blue) before SDS gel electrophoresis followed by Western blotting (Tvorogov et al, 2010). Primary antibodies against pERK (#9101), pSTAT5 (#9359), ERK (#4695), Actin (#4970), Caspase 3 (#14220), wildtype CALR (#12238) were purchased from Cell Signalling. Primary antibodies against pSTATI (#612233), pSTAT3 (#612357), STATI (#610186), STAT3 (#610190), STAT5 (#610192) and Anti-phosphotyrosine 4G10 (#610012) were purchased from BD Biosciences. Mutant CALR monoclonal antibody CAL2 was purchased from Dianova (Hamburg, Germany). Immunopreciptation of TpoR was performed in standard NP40 lysis buffer with additional 50 mM iodoacetamide to avoid any de novo disulfide bond formation post lysis. To reduce IgG background during immunoprecipitation anti-FLAG conjugated to magnetic beads (Sigma, #M8823) were used. For this same reason, anti-FLAG-HRP conjugated antibodies (Sigma, #A8592) were used in western blotting.

Test [6] has as its system TF-1 TpoR CALR^del61 cells. Description: Cell proliferation, trypan blue exclusion. The test is classed as cell-based, human. To be noted: 5 or 20 μg/mL; FIG. 8. On the procedure:
[…] Cells were seeded in triplicate and each well was counted in triplicate every 24 hours for 5 days using trypan blue exclusion.

For test [7], the target named is T2, full-length 30 amino acid CALR mutant neoepitope peptide (peptide used for immunisation) (human).
T2 construct: also called full-length peptide
T2 peptide: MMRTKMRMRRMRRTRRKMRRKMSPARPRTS
Description: ELISA on peptide. Background: ELISA stands for enzyme-linked immunosorbent assay.

For the molecule `N#CC[C@H](C1CCCC1)n1cc(-c2ncnc3[nH]ccc23)cn1` [ruxolitinib], the inhibition (as a rule, the change of the read-out against control, counted positive when it falls) at 0.05 µM in test [1] (50 nM, P=0.008) was greater than 30%. Also, the inhibition at 0.1 µM in test [1] (100 nM, P=0.07) is greater than 30%.
B1: in test [2], the binding result is “no binding”.
As to B2, in test [3], the “binding to peptide by ELISA” value was “positive binding”. Further, the binding result in test [4] is listed as “no binding”; in test [7], “binds”. Further, the “detecting mutant but not wild type CALR protein by Western blotting” value in test [5] was “superior activity”. Besides, the “proliferation of cytokine-independent TF1 TpoR/mutCALR cells” value in test [6] is “inhibit proliferation”.
